# Source: PMC5716069
# Like-named read-outs stand apart in the source and are kept apart here.
# T1: Loqs-PDΔNC (Drosophila melanogaster, UniProt Q9VJY9-4 129-322)
# T1 sequence: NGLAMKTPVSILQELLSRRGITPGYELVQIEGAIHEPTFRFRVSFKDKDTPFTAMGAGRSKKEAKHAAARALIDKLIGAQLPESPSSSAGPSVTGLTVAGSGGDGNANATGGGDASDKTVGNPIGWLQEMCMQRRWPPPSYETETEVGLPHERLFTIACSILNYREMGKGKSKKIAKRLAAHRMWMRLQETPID
# T2: Loqs dsRBD2 (Drosophila melanogaster, UniProt Q9VJY9-4 245-322)
# T2 sequence: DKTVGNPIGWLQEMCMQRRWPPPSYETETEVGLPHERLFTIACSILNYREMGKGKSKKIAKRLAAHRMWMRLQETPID
# T3: Loqs-PD (Drosophila melanogaster, UniProt Q9VJY9-4 1-359)
# T3 sequence: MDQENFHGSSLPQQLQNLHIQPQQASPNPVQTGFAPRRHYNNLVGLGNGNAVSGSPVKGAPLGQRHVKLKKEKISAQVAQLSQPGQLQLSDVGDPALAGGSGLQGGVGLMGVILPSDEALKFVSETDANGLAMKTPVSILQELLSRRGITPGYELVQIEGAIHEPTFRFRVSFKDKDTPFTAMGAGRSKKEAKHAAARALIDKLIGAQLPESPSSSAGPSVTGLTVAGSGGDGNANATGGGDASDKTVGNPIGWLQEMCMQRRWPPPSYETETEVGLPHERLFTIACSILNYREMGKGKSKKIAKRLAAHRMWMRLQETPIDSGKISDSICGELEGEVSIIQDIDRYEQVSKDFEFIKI
# T4: Loqs dsRBD1 (Drosophila melanogaster, UniProt Q9VJY9-4 129-211)
# T4 sequence: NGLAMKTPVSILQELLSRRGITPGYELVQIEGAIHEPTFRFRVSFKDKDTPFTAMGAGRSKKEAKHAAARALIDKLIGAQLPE
# T5: Loqs-PDΔNC Δ41 (Drosophila melanogaster, UniProt Q9VJY9-4 129-322, del209-249)
# T5 sequence: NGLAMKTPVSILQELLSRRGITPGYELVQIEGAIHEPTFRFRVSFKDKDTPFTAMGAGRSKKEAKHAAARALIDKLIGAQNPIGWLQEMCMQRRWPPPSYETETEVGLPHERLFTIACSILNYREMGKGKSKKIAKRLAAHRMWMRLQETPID
# B1: 35 nt dsRNA, FITC (dsRNA)
# RNA 1: GAUUCAUACAAGUGAGAUCAUUUUGAAAGCUGAUU
# RNA 2: UCAGCUUUCAAAAUGAUCUCACUUGUAUGAAUCAA
# modifications: 5'-phosphate
# B2: ban-siRNA, FITC (dsRNA)
# RNA 1: UGAGAUCAUUUUGAAAGCUGAUU
# RNA 2: UCAGCUUUCAAAAUGAUCUCACU
# modifications: 5'-phosphate
# B3: 14 nt RNA, FITC (dsRNA)
# RNA 1: UGAGAUCAUUUUGA
# RNA 2: UCAAAAUGAUCUCAUU
# modifications: 5'-phosphate
# B4: ban-siRNA, unlabeled (dsRNA)
# RNA 1: UCAGCUUUCAAAAUGAUCUCACU
# RNA 2: UGAGAUCAUUUUGAAAGCUGAUU
# B5: nicked siRNA, FITC (dsRNA)
# RNA 1: UGAGAUCAUUUUGAAAGCUGAUU
# RNA 2: UCAGCUUUCAA
# RNA 3: AAUGAUCUCACU
# modifications: nick between 11 and 12 of S1 strand; 5'-phosphate
# B6: nicked siRNA, passenger nicked, 4-thioU (dsRNA)
# RNA 1: UGAGAUCAUUUUGAAAGCUGAUU
# RNA 2: UCAGCUUUCAA
# RNA 3: AAUGAUCUCACU
# modifications: nick 11/12; 4-thiouridine in intact strand
# B7: ban-siRNA GG variant, TEMPO (dsRNA)
# RNA 1: GGAGCUUUCAAAAUGAUCUCCUU
# RNA 2: GGAGAUCAUUUUGAAAGCUCCUU
# modifications: TEMPO at either 5' end (G1 or G24)
# B8: ban-siRNA, 4-thioU series (dsRNA)
# RNA 1: UCAGCUUUCAAAAUGAUCUCACU
# RNA 2: UGAGAUCAUUUUGAAAGCUGAUU
# modifications: one 4-thiouridine per duplex, position varied; 5'-phosphate
# B9: ban-siRNA GG variant, isotope-labeled (dsRNA)
# RNA 1: GGAGCUUUCAAAAUGAUCUCCUU
# RNA 2: GGAGAUCAUUUUGAAAGCUCCUU
# B10: highly asymmetric siRNA, TEMPO (dsRNA)
# RNA 1: GUAACUUUCAAAAUGAGCGCCUU
# RNA 2: GGCGCUCAUUUUGAAAGUUACUU
# modifications: TEMPO at either 5' end
# B11: bantam miRNA/miRNA*, FITC (dsRNA)
# RNA 1: UGAGAUCAUUUUGAAAGCUGAUU
# RNA 2: UCGGUUUUCGAUUUGGUUUGACU
# modifications: 5'-phosphate
# Legend:
# Loqs-PDΔNC [1] = biological target: T1, Loqs-PDΔNC; test: fluorescence anisotropy
# Loqs dsRBD2 [2] = biological target: T2, Loqs dsRBD2; test: fluorescence anisotropy
# Loqs-PD [3] = biological target: T3, Loqs-PD; test: fluorescence anisotropy
# Loqs dsRBD1 [4] = biological target: T4, Loqs dsRBD1; test: fluorescence anisotropy
# Loqs-PDΔNC [5] = biological target: T1, Loqs-PDΔNC; test: NMR titration
# Loqs dsRBD2 [6] = biological target: T2, Loqs dsRBD2; test: NMR titration
# Loqs dsRBD1 [7] = biological target: T4, Loqs dsRBD1; test: NMR titration
# Loqs-PDΔNC Δ41 = biological target: T5, Loqs-PDΔNC Δ41; test: NMR titration
# Loqs-PDΔNC [8] = biological target: T1, Loqs-PDΔNC; test: fluorescence anisotropy and EMSA
# Loqs dsRBD2 [9] = biological target: T2, Loqs dsRBD2; test: fluorescence anisotropy and EMSA
# Dcr-2;Loqs-PD [10] = biological target: T6, Dcr-2;Loqs-PD (Drosophila melanogaster;Drosophila …, UniProt A1ZAW0;Q9VJY9-4 1-1722;1-359, |); test: 4-thioU UV cross-linking
# T6 sequence (A1ZAW0 whole entry, one chain of several): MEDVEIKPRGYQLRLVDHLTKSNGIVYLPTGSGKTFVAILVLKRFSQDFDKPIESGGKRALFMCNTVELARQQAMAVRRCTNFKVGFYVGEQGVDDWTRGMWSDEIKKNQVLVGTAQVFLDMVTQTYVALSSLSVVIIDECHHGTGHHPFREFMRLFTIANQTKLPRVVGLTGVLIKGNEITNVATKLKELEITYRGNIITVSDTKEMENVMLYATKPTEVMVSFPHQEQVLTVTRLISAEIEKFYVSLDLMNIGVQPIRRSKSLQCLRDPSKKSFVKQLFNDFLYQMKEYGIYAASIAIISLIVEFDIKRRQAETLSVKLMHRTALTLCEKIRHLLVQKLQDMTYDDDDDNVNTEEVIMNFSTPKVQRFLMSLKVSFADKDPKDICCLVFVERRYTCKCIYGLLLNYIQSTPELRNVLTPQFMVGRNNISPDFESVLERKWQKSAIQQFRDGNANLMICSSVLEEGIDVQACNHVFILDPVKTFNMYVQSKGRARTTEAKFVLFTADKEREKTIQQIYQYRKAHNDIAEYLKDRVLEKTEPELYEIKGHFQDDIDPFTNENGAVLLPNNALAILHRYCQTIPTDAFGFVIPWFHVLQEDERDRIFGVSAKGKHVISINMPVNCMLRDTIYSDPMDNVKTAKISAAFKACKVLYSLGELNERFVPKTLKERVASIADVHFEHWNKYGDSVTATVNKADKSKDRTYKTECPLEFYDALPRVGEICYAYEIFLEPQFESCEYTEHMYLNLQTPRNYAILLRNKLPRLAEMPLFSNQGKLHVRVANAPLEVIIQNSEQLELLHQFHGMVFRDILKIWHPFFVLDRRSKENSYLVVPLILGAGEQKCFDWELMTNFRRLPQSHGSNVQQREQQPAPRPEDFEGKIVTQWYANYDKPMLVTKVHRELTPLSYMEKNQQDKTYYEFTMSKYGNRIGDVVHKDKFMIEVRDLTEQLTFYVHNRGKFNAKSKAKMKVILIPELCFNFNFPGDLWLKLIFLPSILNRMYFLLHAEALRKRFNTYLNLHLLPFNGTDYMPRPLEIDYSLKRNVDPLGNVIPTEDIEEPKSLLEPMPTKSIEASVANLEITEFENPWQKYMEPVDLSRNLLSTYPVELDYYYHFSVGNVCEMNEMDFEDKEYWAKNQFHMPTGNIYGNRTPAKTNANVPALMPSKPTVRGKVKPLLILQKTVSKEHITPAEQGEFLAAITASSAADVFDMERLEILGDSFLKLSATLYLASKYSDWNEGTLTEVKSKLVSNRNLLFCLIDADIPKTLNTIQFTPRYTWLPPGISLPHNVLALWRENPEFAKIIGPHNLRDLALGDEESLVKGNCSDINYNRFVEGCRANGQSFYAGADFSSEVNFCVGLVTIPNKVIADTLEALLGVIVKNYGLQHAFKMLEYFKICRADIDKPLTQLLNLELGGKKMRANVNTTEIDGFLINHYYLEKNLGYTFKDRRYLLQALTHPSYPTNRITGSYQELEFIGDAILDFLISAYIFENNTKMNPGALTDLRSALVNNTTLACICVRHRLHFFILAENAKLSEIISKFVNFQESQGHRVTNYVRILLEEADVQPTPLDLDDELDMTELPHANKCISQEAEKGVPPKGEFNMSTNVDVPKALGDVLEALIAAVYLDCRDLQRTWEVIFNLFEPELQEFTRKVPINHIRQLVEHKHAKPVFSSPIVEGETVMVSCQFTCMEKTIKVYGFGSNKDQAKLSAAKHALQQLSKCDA
# Loqs-PDΔNC [11] = biological target: T1, Loqs-PDΔNC; test: NMR PRE
# Dcr-2 = Dcr-2 (Drosophila melanogaster, UniProt A1ZAW0 1-1722); test: 4-thioU UV cross-linking
# Sequence of Dcr-2 (A1ZAW0 whole entry): as the sequence (A1ZAW0 whole entry, one chain of several) above
# Loqs dsRBD2 [12] = biological target: T2, Loqs dsRBD2; test: 4-thioU UV cross-linking
# Loqs dsRBD1 [13] = biological target: T4, Loqs dsRBD1; test: 4-thioU UV cross-linking
# Loqs-PDΔNC [14] = biological target: T1, Loqs-PDΔNC; test: 4-thioU UV cross-linking
# Loqs-PD [15] = biological target: T3, Loqs-PD; test: 4-thioU UV cross-linking
# Dcr-2;Loqs-PD [16] = biological target: T6, Dcr-2;Loqs-PD; test: 4-thioU UV cross-linking; remark: listed apart in the source
# Loqs-PDΔNC [17] = biological target: T1, Loqs-PDΔNC; test: NMR
# Loqs-PDΔNC [18] = biological target: T1, Loqs-PDΔNC; test: NMR PRE; remark: listed apart in the source
Binder,Kd (Loqs-PDΔNC [1]),Kd (Loqs dsRBD2 [2]),Kd (Loqs-PD [3]),Kd (Loqs dsRBD1 [4]),further results
B1,86 ± 18 nM,229 ± 48 nM,62 ± 5 nM,191 ± 29 nM,–
B2,82 ± 21 nM,278 ± 24 nM,50 ± 6 nM,228 ± 27 nM,–
B3,128 ± 41 nM,334 ± 8 nM,118 ± 15 nM,365 ± 62 nM,–
B4,–,–,–,–,binding result (Loqs-PDΔNC [5]): binds; binding result (Loqs dsRBD2 [6]): binds; binding result (Loqs dsRBD1 [7]): binds; binding result (Loqs-PDΔNC Δ41): binds
B5,–,–,–,–,binding result (Loqs-PDΔNC [8]): binds; binding result (Loqs dsRBD2 [9]): binds
B6,–,–,–,–,binding result (Dcr-2;Loqs-PD [10]): binds
B7,–,–,–,–,binding result (Loqs-PDΔNC [11]): binds
B8,–,–,–,–,binding result (Dcr-2): binds; binding result (Loqs dsRBD2 [12]): binds; binding result (Loqs dsRBD1 [13]): binds; binding result (Loqs-PDΔNC [14]): binds; binding result (Loqs-PD [15]): binds; binding result (Dcr-2;Loqs-PD [16]): binds
B9,–,–,–,–,binding result (Loqs-PDΔNC [17]): binds
B10,–,–,–,–,binding result (Loqs-PDΔNC [18]): binds
B11,97 ± 21 nM,241 ± 75 nM,118 ± 17 nM,233 ± 17 nM,–
